Assay results published in publication PMC13108567, “Targeting PD-1^+ T cells with chimeric antigen receptors to reduce the HIV reservoir” (Science Advances, 2026).

Molecular target: T1, PD-1 biotinylated dimer (Homo sapiens, UniProt Q15116)
T1 construct: also called PD-1 dimer protein
Test: BLI
Conditions: both partners purified

T1 sequence (Q15116 25-288): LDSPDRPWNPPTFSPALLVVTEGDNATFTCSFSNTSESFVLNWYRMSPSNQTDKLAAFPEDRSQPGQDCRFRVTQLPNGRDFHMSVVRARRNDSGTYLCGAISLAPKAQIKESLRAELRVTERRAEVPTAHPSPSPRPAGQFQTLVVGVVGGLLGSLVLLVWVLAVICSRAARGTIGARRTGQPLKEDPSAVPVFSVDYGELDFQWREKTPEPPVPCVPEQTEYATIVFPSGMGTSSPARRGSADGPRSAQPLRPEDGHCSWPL

KD, fold lower than that of the scFv of clone A35: 4 times
B1: scFv-His of anti-PD-1 clone 135c139d6 (scFv, V domains shown)
VH: EVQLVQSGAEVKKPGESLKISCKGSGYSFTNFYIHWVRQAPGQRLEWMGSIYPNYGDTAYNQKFKDRFVFSLDTSVSTAYLQISSLKAEDTAVYYCARGYSYAMDYWGQGTTVTVSS
VL: DIQMTQSPSSVSASVGDRVTITCSASQGISGDLNWYQQKPGKAPKLLIYHTSSLHSGVPSRFSGSGSGTDFTLTISSLQPEDFATYYCQYYSKDLLTFGGGTKLEIK
notes: source: purified
